According to patent US20230192902A1, “ABCG2 EFFLUX PUMP-CANCER ANTIGEN MULTI-SPECIFIC ANTIBODIES AND COMPOSITIONS, REAGENTS, KITS AND METHODS RELATED THERETO” (Kenjockety Biotechnology, Inc., priority 2020, published 2023):

Test system: 293T_ABCG2_OX cells (293T cells stably transfected to express ABCG2)
Experiment: Topotecan cytotoxicity assay in the presence of antibodies (CellTiter-Glo)
Format: cell-based, human
Settings: FIG. 1; 293T cells overexpressing ABCG2; 72-96 hr; IC50 values only in the figure
Procedure: Cytotoxicity Assays. The effect of antibodies on topotecan cytotoxicity was evaluated on 293T_ABCG2_OX cells, 293T cells stably transfected to express ABCG2. Cells were plated in 0.05 mL of Assay Media (DMEM +10% FBS) at 5000 cells/well in white, flat bottom 96-well tissue culture plates. Topotecan was prepared at 2X final assay concentration by serial dilution from 200 uM in assay media containing test antibodies or control antibodies at 100 ug/mL (2X final concentration), or Fumitremorgin C (FTC), a small molecule ABCG2 inhibitor at (2X final concentration). An equivalent volume (0.05 mL) of the topotecan/antibody mixture was added to the 293T_ABCG2_OX cells in 96-well plates. The plates were then incubated at 37° C., in 5% CO2. After about 72-96 hr plates were equilibrated to room temperature and cell viability assessed using Promega® CellTiter-Glo® Luminescent Cell Viability Assay according to the manufacturer’s recommended protocol. Luminescence was measured on a Molecular Devices® FlexStation® 3 Multi-Mode Microplate Reader and data analyzed using GraphPad Prism 8.0 software. Half maximal inhibitory concentration (IC50) is the concentration of drug (topotecan or other chemotherapy cytotoxic agent) where the response (cell growth) is reduced by 50%.

Molecule	susceptibility of cells to topotecan in the presence of the antibody
5D3: anti-ABCG2 antibody 5D3; VH SEQ ID NO:5, VL SEQ ID NO:1; tested with human IgG1 constant regions (antibody, V domains shown, human IgG1 constant regions, anti-ABCG2 antibody 5D3; tested with human IgG1 constant regions) VH: QVQLQESGPGLVKPSQSLSLTCTVTGFSITSDYAWNWIRQFPGKKLEWMGYINFDGGTTYNPSLRGRISITRDTSKNQFFLQLRSVTPEDTATYYCATFYGAKGTLDYWGQGTSVTVSS VL: DIVLTQSPSSFSVSLGDRVTISCKASGYILNRLAWYQQKPGNAPRLLISGATSLETGFPSRFSGTGSGKDYTLSISSLQTEDVGTYYCQQYWSTPWTFGGGTKLEIR	increased susceptibility to topotecan
5D3DDKT14KK5D3: bispecific ABCG2/CD47 antibody: HC and LC from anti-ABCG2 antibody 5D3 and a HC from anti-CD47 antibody 5F9; DD/KK charged pair substitutions (antibody, V domains shown) VH 1: QVQLQESGPGLVKPSQSLSLTCTVTGFSITSDYAWNWIRQFPGKKLEWMGYINFDGGTTYNPSLRGRISITRDTSKNQFFLQLRSVTPEDTATYYCATFYGAKGTLDYWGQGTSVTVSS VH 2: QVQLVQSGAEVKKPGASVKVSCKASGYTFTNYNMHWVRQAPGQRLEWMGTIYPGNDDTSYNQKFKDRVTITADTSASTAYMELSSLRSEDTAVYYCARGGYRAMDYWGQGTLVTVSS VL: DIVLTQSPSSFSVSLGDRVTISCKASGYILNRLAWYQQKPGNAPRLLISGATSLETGFPSRFSGTGSGKDYTLSISSLQTEDVGTYYCQQYWSTPWTFGGGTKLEIR	increased susceptibility to topotecan
5D3hVHv1DDKT14KK5D3hVLv1: bispecific ABCG2/CD47 antibody: humanized 5D3 VH version 1 (DD), 5F9 HC (KK), humanized 5D3 VL version 1 common light chain (antibody, V domains shown) VH 1: EVQLQESGPGLVKPSETLSLTCTVSGFSITSDYAWNWIRQPPGKGLEWMGYINFDGGTTYNPSLRGRITISRDTSKNQFSLKLSSVTAADTAVYYCATFYGAKGTLDYWGQGTLVTVSS VH 2: QVQLVQSGAEVKKPGASVKVSCKASGYTFTNYNMHWVRQAPGQRLEWMGTIYPGNDDTSYNQKFKDRVTITADTSASTAYMELSSLRSEDTAVYYCARGGYRAMDYWGQGTLVTVSS VL: DIQLTQSPSSLSASVGDRVTITCKASGYILNRLAWYQQKPGKAPKLLISGATSLETGFPSRFSGSGSGKDYTLTISSLQPEDFATYYCQQYWSTPWTFGGGTKLEIK	increased susceptibility to topotecan
5D3hVHv2DDKT14KK5D3hVLv1: bispecific ABCG2/CD47 antibody: humanized 5D3 VH version 2 (DD), 5F9 HC (KK), humanized 5D3 VL version 1 common light chain (antibody, V domains shown) VH 1: EVQLQESGPGLVKPSETLSLTCTVSGFSITSDYAWNWIRQPPGKGLEWIGYINFDGGTTYNPSLRGRVTISRDTSKNQFSLKLSSVTAADTAVYYCATFYGAKGTLDYWGQGTLVTVSS VH 2: QVQLVQSGAEVKKPGASVKVSCKASGYTFTNYNMHWVRQAPGQRLEWMGTIYPGNDDTSYNQKFKDRVTITADTSASTAYMELSSLRSEDTAVYYCARGGYRAMDYWGQGTLVTVSS VL: DIQLTQSPSSLSASVGDRVTITCKASGYILNRLAWYQQKPGKAPKLLISGATSLETGFPSRFSGSGSGKDYTLTISSLQPEDFATYYCQQYWSTPWTFGGGTKLEIK	increased susceptibility to topotecan
